Laboratory results published in PMC7343708, “Molecular Dynamics to Elucidate the DNA-Binding Activity of AlpZ, a Member of the Gamma-Butyrolactone Receptor Family in Streptomyces ambofaciens”.

T1: AlpZ (Streptomyces ambofaciens, UniProt Q6VMG9 1-237)
T1 sequence: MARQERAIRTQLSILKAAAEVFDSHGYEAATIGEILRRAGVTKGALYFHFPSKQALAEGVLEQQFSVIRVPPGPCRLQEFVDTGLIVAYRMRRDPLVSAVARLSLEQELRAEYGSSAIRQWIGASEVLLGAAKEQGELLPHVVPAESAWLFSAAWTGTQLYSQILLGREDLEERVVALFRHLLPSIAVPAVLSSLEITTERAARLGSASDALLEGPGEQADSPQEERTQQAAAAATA

B1: nanoAREV dsoverhang (dsDNA)
DNA 1: CTCACATTGACAAACCGACTGTGCTGTTTTTTTATCAGGGATCAGCGTTCGATGCTTCCGACTAATCAGCCATATCAGCTTACGACTA
DNA 2: CCCTGATAAAAAAACAGCACAGTCGGTTTGTCAATGTGAG
B2: nanoControl dsoverhang (dsDNA)
DNA 1: GGGGGGTGTGAGAACGGGGTGTTCTGGTGTTTGCGCCGGAATCAGCGTTCGATGCTTCCGACTAATCAGCCATATCAGCTTACGACTA
DNA 2: TCCGGCGCAAACACCAGAACACCCCGTTCTCACACCCCCC

What was measured:
[1] = biological target: T1, AlpZ; assay: switchSENSE; AlpZ 50 nM; kON 1.38e5 M-1 s-1, kOFF 1.05e-4 s-1 (printed rates give 0.76 nM, inconsistent with printed KD); switchSENSE: PE40 pH 7.4 (10 mM Na phosphate, 40 mM NaCl, 0.05% Tween20, 50 uM EDTA, 50 uM EGTA), 30 C; EMSA: 20 mM HEPES pH 7.6, 1 mM EDTA, 10 mM (NH4)2SO4, 1; details: protein: recombinant; chain copies: 2; label: fluorescent nanolever on the switchSENSE chip; 40 bp duplex with 3' overhang 48 nt on strand 1, hybridized to chip nanolever
[2] = biological target: T1, AlpZ; assay: switchSENSE; no association observed; switchSENSE: PE40 pH 7.4 (10 mM Na phosphate, 40 mM NaCl, 0.05% Tween20, 50 uM EDTA, 50 uM EGTA), 30 C; EMSA: 20 mM HEPES pH 7.6, 1 mM EDTA, 10 mM (NH4)2SO4, 1; details: protein: recombinant; chain copies: 2; label: fluorescent nanolever on the switchSENSE chip; 40 bp duplex with 3' overhang 48 nt on strand 1, hybridized to chip nanolever

| Binder | Kd [1] | binding result [2] |
| --- | --- | --- |
| B1 | 37.1 ± 3.3 nM |  |
| B2 |  | no binding |
